Data from patent US9188587.

Tests used:
[1] = target: I^125-αDTX-labelled VGKCs (Kv1 complexes) in digitonin-solubilised rabbit cortex extract
[2] = target: I^125-αDTX-labelled VGKCs (Kv1 complexes) in digitonin-solubilised rabbit cortex extract; remark: listed apart in the source

Substance: goat anti Lgi1 antibody (Santa Cruz C19 sc-9583 and N18 sc-9581)
- percent of total I^125-αDTX binding sites precipitated [1]: > 60%
- percent of αDTX binding sites immunoprecipitated [2]: 61%
